From publication PMC3293397 (Biochemistry, 2012)

Target: the molecule itself
Assay: crystal structure

B1: S. elongatus KaiC E318A mutant protein (enzyme, Synechococcus elongatus PCC 7942, UniProt Q79PF4 1-519, looked up)
chain: MTSAEMTSPNNNSEHQAIAKMRTMIEGFDDISHGGLPIGRSTLVSGTSGTGKTLFSIQFLYNGIIEFDEPGVFVTFEETPQDIIKNARSFGWDLAKLVDEGKLFILDASPDPEGQEVVGGFDLSALIERINYAIQKYRARRVSIDSVTSVFQQYDASSVVRRELFRLVARLKQIGATTVMTTERIEEYGPIARYGVEEFVSDNVVILRNVLEGERRRRTLEILKLRGTSHMKGEYPFTITDHGINIFPLGAMRLTQRSSNVRVSSGVVRLDEMCGGGFFKDSIILATGATGTGKTLLVSRFVENACANKERAILFAYAESRAQLLRNAYSWGMDFEEMERQNLLKIVCAYPESAGLEDHLQIIKSEINDFKPARIAIDSLSALARGVSNNAFRQFVIGVTGYAKQEEITGLFTNTSDQFMGAHSITDSHISTITDTIILLQYVEIRGEMSRAINVFKMRGSWHDKAIREFMISDKGPDIKDSFRNFERIISGSPTRITVDEKSELSRIVRGVQEKGPES
modifications: phosphothreonine at T432 in five of the six subunits; no S431 phosphorylated
binding result: binds
